According to publication PMC12749748 (Nature Communications, 2025):

Molecular target: the molecule itself
Test: cryo-EM structure; IRE1:G6374:VCB complex purified by SEC, cross-linked with 500 µM BS3, 0.005% CTAB added; map at ~2.6 Å

B1: Recombinant human IRE1.KR (G547-L977) (domain or fragment, UniProt O75460 547-977, looked up)
chain: GSSPSLEQDDGDEETSVVIVGKISFCPKDVLGHGAEGTIVYRGMFDNRDVAVKRILPECFSFADREVQLLRESDEHPNVIRYFCTEKDRQFQYIAIELCAATLQEYVEQKDFAHLGLEPITLLQQTTSGLAHLHSLNIVHRDLKPHNILISMPNAHGKIKAMISDFGLCKKLAVGRHSFSRRSGVPGTEGWIAPEMLSEDCKENPTYTVDIFSAGCVFYYVISEGSHPFGKSLQRQANILLGACSLDCLHPEKHEDVIARELIEKMIAMDPQKRPSAKHVLKHPFFWSLEKQLQFFQDVSDRIEKESLDGPIVKQLERGGRAVVKMDWRENITVPLQTDLRKFRTYKGGSVRDLLRAMRNKKHHYRELPAEVRETLGSLPDDFVCYFTSRFPHLLAHTYRAMELCSHERLFQPYYFHEPPEPQPPVTPDAL
  stoichiometry N: 2
